Publication PMC12239582, “The cyclic di-GMP receptor YcgR links the second messenger with the putrescine quorum sensing system in modulation of Dickeya oryzae motility” (mBio, 2025)

Target: T1, SpeA-His (Dickeya oryzae EC1, UniProt A0AB39IRQ5 1-658)
T1 sequence (looked up): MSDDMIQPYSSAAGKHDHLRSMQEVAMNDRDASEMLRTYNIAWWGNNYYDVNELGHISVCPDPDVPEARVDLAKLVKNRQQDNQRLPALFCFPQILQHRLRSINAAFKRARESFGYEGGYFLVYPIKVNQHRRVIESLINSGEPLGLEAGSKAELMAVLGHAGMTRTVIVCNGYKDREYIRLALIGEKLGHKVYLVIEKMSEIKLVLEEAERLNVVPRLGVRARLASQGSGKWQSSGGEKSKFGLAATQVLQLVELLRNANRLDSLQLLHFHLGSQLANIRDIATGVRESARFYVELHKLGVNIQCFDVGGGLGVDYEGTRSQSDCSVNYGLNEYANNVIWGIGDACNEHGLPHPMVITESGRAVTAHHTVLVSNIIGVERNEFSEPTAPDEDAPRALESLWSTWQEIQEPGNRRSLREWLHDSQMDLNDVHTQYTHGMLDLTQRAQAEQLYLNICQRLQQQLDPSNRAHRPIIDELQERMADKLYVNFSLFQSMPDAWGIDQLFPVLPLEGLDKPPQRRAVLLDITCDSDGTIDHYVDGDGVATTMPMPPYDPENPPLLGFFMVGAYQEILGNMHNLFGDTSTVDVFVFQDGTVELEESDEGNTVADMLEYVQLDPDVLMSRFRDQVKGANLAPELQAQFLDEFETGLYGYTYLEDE
Experiment: cell-based or functional assay

B1: GST-YcgR (natural protein)
chain: MDVVDDNMKEQYARRGKMAICATLRGLQKQDATVMVYHTHGQFISKILEVDSDEEEFLFDLGALERENSRALFAGELGFVAETAGAKVEFRTTIIRTVEHDNLPAFCAAIPDVLYYIQRRNFFRINSPAWPPMVCRGELPDSTYFEFNLKDLSLGGLCMYTDDQGLAVLFEPGMILKNVDVDLASYGQFCLDMEFVNHATTKVVDSKGEVKQIERLSFKFPTLSAVQERGLQQVITELELDQNEKRKRLR
yield of agmatine made by SpeA in vitro (OPA fluorescence) with YcgR added at a 2:1 ratio, against the reaction without YcgR; 75% increase at 1 h to about 160% at 2 h: ~160%
